Read-outs that look alike come from different tables or passages of the source.
B1: DecSelf (Dec fused at its C-terminus to the 21 amino acid CD47 mimic Self-peptide) (other)
chain: MGSSHHHHHHSQDPMANPNFTPSWPLYKDADGVYVSALPIKAIKYANDGSANAEFDGPYADQYMSAQTVAVFKPEVGGYLFRSQYGELLYMSKTAFEANYTSASGSVANAETADKLSTARTITLTGAVTGSASFDGSANVTIETTSGSELGNYTCEVTELTREGETIIELK
B2: DecmCD40L (Dec fused at its C-terminus to the soluble region of murine CD40L) (ligand)
chain: MGSSHHHHHHSQDPMANPNFTPSWPLYKDADGVYVSALPIKAIKYANDGSANAEFDGPYADQYMSAQTVAVFKPEVGGYLFRSQYGELLYMSKTAFEANYTSASGSVANAETADKLSTARTITLTGAVTGSASFDGSANVTIETTSGSELQRGDEDPQIAAHVVSEANSNAASVLQWAKKGYYTMKSNLVMLENGKQLTVKREGLYYVYTQVTFCSNREPSSQRPFIVGLWLKPSSGSERILLKAANTHSSSQLCEQQSVHLGGVFELQAGASVFVNVTEASQVIHRVGFSSFGLLKL
B3: DecΔ11 (Dec lacking the first 11 N-terminal residues) (other)
chain: MGSSHHHHHHSQDPLYKDADGVYVSALPIKAIKYANDGSANAEFDGPYADQYMSAQTVAVFKPEVGGYLFRSQYGELLYMSKTAFEANYTSASGSVANAETADKLSTARTITLTGAVTGSASFDGSANVTIETTSGS
B4: DecWT (other)
chain: MGSSHHHHHHSLVPRGSQDPMANPNFTPSWPLYKDADGVYVSALPIKAIKYANDGSANAEFDGPYADQYMSAQTVAVFKPEVGGYLFRSQYGELLYMSKTAFEANYTSASGSVANAETADKLSTARTITLTGAVTGSASFDGSANVTIETTSGS
notes: also called Dec with an N-terminal his-tag
B5: DecΔ20 (Dec lacking the first 20 N-terminal residues) (other)
chain: MGSSHHHHHHSQDPVSALPIKAIKYANDGSANAEFDGPYADQYMSAQTVAVFKPEVGGYLFRSQYGELLYMSKTAFEANYTSASGSVANAETADKLSTARTITLTGAVTGSASFDGSANVTIETTSGS

Tests used:
[1] = biological target: P22 procapsid (PC) after removal of the Dec-binding sub-population (bacteriophage P22 (filing: P22 VLP from Salmonella typhimurium)) (UniProt P26747); experiment: SEC-MALS, number of Dec monomers calculated from the difference between bound and control particle molecular weight; PC control row 0±43
Sequence of P22 procapsid (PC) after removal of the Dec-binding sub-population (bacteriophage P22 (filing: P22 VLP from Salmonella typhimurium)) (P26747 2-430, chain 1 of 2): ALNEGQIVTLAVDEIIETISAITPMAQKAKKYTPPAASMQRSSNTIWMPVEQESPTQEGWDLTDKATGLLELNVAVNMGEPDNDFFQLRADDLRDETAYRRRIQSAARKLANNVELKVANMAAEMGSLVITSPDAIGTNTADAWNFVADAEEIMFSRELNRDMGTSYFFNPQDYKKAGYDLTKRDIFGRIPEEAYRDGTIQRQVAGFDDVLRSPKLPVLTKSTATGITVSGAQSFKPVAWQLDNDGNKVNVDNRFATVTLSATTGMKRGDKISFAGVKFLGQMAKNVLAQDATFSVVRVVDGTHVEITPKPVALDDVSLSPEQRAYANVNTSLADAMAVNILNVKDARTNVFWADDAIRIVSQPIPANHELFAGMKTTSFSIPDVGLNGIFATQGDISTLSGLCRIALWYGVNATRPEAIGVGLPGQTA
Sequence of P22 procapsid (PC) after removal of the Dec-binding sub-population (bacteriophage P22 (filing: P22 VLP from Salmonella typhimurium)) (P26748 whole entry, chain 2 of 2, further chain): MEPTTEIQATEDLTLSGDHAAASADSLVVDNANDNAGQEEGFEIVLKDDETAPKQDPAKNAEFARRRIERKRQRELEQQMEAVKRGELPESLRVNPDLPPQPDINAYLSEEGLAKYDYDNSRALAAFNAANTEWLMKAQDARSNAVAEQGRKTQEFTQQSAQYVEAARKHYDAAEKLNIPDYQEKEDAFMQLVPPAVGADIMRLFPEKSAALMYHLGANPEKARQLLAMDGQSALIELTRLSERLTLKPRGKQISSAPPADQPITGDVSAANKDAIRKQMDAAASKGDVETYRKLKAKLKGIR

[2] = biological target: P22 procapsid (PC) after removal of the Dec-binding sub-population (bacteriophage P22 (filing: P22 VLP from Salmonella typhimurium)) (UniProt P26747); experiment: SEC-QELS, particle radius of hydration after incubation with DecWT; PC control row 26.4±0.5
[3] = biological target: P22 procapsid (PC) after removal of the Dec-binding sub-population (bacteriophage P22 (filing: P22 VLP from Salmonella typhimurium)) (UniProt P26747); experiment: SEC retention shift after incubation with DecWT; PC control row 0±0.001
[4] = biological target: P22 procapsid (PC) after removal of the Dec-binding sub-population (bacteriophage P22 (filing: P22 VLP from Salmonella typhimurium)) (UniProt P26747); experiment: SEC-MALS, particle molecular weight after incubation with DecWT; PC control row 22.8±0.7
[5] = biological target: T1, EX P22 VLP (expanded form of the bacteriophage P22 virus-like particle) (bacteriophage P22 (filing: P22 VLP from …, UniProt P26747 2-430)); experiment: SPR, EX P22 immobilised, two-site global fit; site 2, column 'KD2 (nM)'
T1 sequence (P26747 2-430 limits assumed): as the sequence (P26747 2-430, chain 1 of 2) above

[6] = biological target: T1, EX P22 VLP (expanded form of the …); experiment: SEC-QELS, particle radius of hydration with Dec bound; EX control row 28.4±0.7
[7] = biological target: T1, EX P22 VLP (expanded form of the …); experiment: SEC-MALS, particle molecular weight with Dec bound; EX control row 20.5±0.2
[8] = biological target: T1, EX P22 VLP (expanded form of the …); experiment: SPR, EX P22 immobilised, two-site fit, tighter site
[9] = biological target: T1, EX P22 VLP (expanded form of the …); experiment: SPR, EX P22 immobilised, two-site fit, low-affinity site
[10] = biological target: T1, EX P22 VLP (expanded form of the …); experiment: SPR, EX P22 immobilised, two-site global fit; site 2, column 'Ka2 (M-1 s-1)'
[11] = biological target: T1, EX P22 VLP (expanded form of the …)
[12] = biological target: T1, EX P22 VLP (expanded form of the …); experiment: SEC retention shift of P22 upon Dec binding; EX control row 0±0.008
[13] = biological target: T1, EX P22 VLP (expanded form of the …); experiment: SPR, EX P22 immobilised, two-site global fit; site 1, column 'Kd1 (s-1 x 10-4)'
[14] = biological target: T1, EX P22 VLP (expanded form of the …); experiment: SPR, extended 4 h dissociation, two independent sites, weak site
[15] = biological target: T1, EX P22 VLP (expanded form of the …); experiment: SPR, EX P22 immobilised, two-site fit, high-affinity site
[16] = biological target: T1, EX P22 VLP (expanded form of the …); experiment: SPR, two-site fit with the tight-site kd fixed at the value of the 4 h dissociation
[17] = biological target: T1, EX P22 VLP (expanded form of the …); experiment: SPR, EX P22 immobilised, single-site fit of the low concentrations
[18] = biological target: T1, EX P22 VLP (expanded form of the …); experiment: SPR, extended 4 h dissociation, two independent sites, tight site
[19] = biological target: T1, EX P22 VLP (expanded form of the …); experiment: SPR, from the fitted parameters
[20] = biological target: T1, EX P22 VLP (expanded form of the …); experiment: SPR, single-site fit
[21] = biological target: T1, EX P22 VLP (expanded form of the …); remark: listed apart in the source

Molecule	Rh (nm) [6]	MW (MDa) [7]	Kd [8]	koff [8]	kon [8]	Kd [9]	kon [10]	koff [11]	retention shift [12]	Kd [11]	also measured
DecWT											Dec monomers [1]: 24 monomers; Rh (nm) [2]: 26.6 nm; retention shift [3]: 0.03 min; MW (MDa) [4]: 23.2 MDa
B1	29.6 nm	22.6 MDa	18.3 nM	0.0002 s⁻¹	11200 M⁻¹ s⁻¹	146 nM	2190 M⁻¹ s⁻¹	0.00323 s⁻¹	0.5 min		Kd [5]: 146 nM
B2			30.8 nM	0.0002 s⁻¹	6440 M⁻¹ s⁻¹	1420 nM	4820 M⁻¹ s⁻¹	0.0068 s⁻¹			
B3	30.1 nm	23.6 MDa					38300 M⁻¹ s⁻¹	0.0044 s⁻¹	0.595 min		kon [11]: 9200 M⁻¹ s⁻¹; koff [13]: 4.4e-05 s⁻¹
B4	29.6 nm	23 MDa				1500 nM		0.00182 s⁻¹	0.619 min	446 nM	koff [14]: 0.00095 s⁻¹; Kd [15]: 9.2 nM; koff [15]: 0.000106 s⁻¹; kon [15]: 11500 M⁻¹ s⁻¹; Kd [16]: 0.255 nM; Kd [17]: 24 nM; koff [17]: 0.00033 s⁻¹; kon [17]: 13800 M⁻¹ s⁻¹; koff [18]: 3.2e-06 s⁻¹; koff [9]: 0.00298 s⁻¹; kon [9]: 1980 M⁻¹ s⁻¹; half-life of binding at the tight-site [19]: ≥ 60 h
B5								0.00024 s⁻¹		3450 nM	fold reduction in KD from the high-affinity site of DecWT [20]: > 300 fold; Kd [21]: 3.5 µM
